Measured values reported in patent publication US20250346679A1 (INVOX PHARMA, published 2025).
Values belong to the binder of their own block, whether it stands above or below them.

Tests used:
[1] = target: human PD-L1, cell-surface (human, UniProt Q9NZQ7 19-290); assay: cell-based or functional assay
[2] = target: T1, cPD-L1-His (Acro Biosystems, PD1-C52H4) (cynomolgus, UniProt Q9NZQ7 19-238 (human entry)); assay: SPR, mAb^2 captured on Protein A chip, antigen in flow
T1 construct: bought; also called Cyno PD-L1-His; Cynomolgus PD-L1-His; not shown: His tag of the bought product
T1 sequence (Q9NZQ7 other isoform, or with tags, fused parts or gaps): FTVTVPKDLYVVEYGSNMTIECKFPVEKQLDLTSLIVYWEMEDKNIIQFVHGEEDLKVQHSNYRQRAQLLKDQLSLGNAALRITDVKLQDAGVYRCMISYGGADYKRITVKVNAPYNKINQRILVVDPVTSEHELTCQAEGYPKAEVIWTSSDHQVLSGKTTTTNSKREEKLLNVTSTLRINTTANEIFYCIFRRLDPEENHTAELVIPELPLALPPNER
Procedure: (§1) Briefly, the anti-human CD137/PD-L1 mAb², diluted in HBS-EP buffer (GE Healthcare, BR100188) at 2 μg/ml, were injected individually on flows cell 2, 3 and 4 of a Protein A chip (GE Healthcare, 29127556) at 30 μl/min to achieve a final response of approximately 110 RU. Two different recombinant human PD-L1 antigens were used i.e. hPD-L1-His-Avi (see Example 1.3 for antigen details) and biotinylated hPD-L1-Avi-His (Acrobiosystems, PD-1-H82E5). Human and cynomolgus PD-L1-His (Acrobiosystems, PD-1-C52H4) antigens, diluted in HBS-EP buffer, were injected on flow cell 1, 2, 3 or 4 as appropriate at a concentration range of 81 nM to 0.037 nM with 3-fold dilutions for 4 min at 75 μl/min and then allowed to dissociate in buffer for 10 min. Regeneration was achieved by injecting 10 mM glycine-HCL pH1.5 (GE Healthcare, Human Antibody Capture Kit, BR00356) for 30 sec at a rate of 30 μl/min. Subtracted data (flow cell 2−flow cell 1, flow cell 3−flow cell 1, or flow cell 4−flow cell 1) were analysed using BIAevaluation 3.2 Software (GE Healthcare) to identify binding using the model 1:1 binding with mass transfer, with refractive index (RI) constant 0.

[3] = target: T2, biotinylated hPD-L1-Avi-His (Acro Biosystems, PD1-H82E5) (human, UniProt Q9NZQ7 19-238, biotinylated); assay: as above
T2 construct: bought; also called Human PD-L1-His; not shown: Avi and His tags of the bought product
T2 sequence (Q9NZQ7 19-238): as the sequence (Q9NZQ7 other isoform, or with tags, fused parts or gaps) above, with T33A, S34A, N62S, Q68R, R82Q, L173F, A185T, I192T, L215H counted along it
Procedure: as §1

hCD137-mFc-Avi [4] = target: T3, hCD137-mFc-Avi (human; mouse, UniProt Q07011 24-186, biotin on the Avi sequence where the biotinylated form was used); assay: SPR, mAb^2 captured by anti-human Fab, antigen in flow
T3 construct: also called human CD137-mFc-Avi; dimeric human CD137; not shown: mouse IgG2a Fc domain (mIgG2a Fc)
T3 sequence (Q07011 24-186): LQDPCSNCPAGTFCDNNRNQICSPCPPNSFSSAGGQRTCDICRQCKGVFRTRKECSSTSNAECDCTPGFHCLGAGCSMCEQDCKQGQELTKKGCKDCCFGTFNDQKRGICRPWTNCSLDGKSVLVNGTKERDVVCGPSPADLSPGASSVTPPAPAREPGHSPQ
Procedure: (§2) The binding of the anti-human CD137/PD-L1 mAb² to recombinant dimeric human and cynomolgus CD137 antigens was also measured by SPR using a Biacore T200 processing unit (GE Healthcare).
(§3) Briefly, 20 μg/ml anti-human Fab antibody (GE Healthcare, Human Fab Capture kit 28958325) was coated on flow cells 1, 2, 3 and 4 of a Biacore sensor S chip CM5 (GE Healthcare, BR100530) achieving a final response of approximately 5000 RU. […] The recombinant dimeric antigens, human CD137-mFc-Avi or cynomolgus CD137-mFc-Avi (see Example 1.1 for antigen details) diluted in HBS-EP buffer, were injected on flow cell 1, 2, 3 or 4 as appropriate at a concentration range of 81 nM to 0.037 nM with 3-fold dilutions for 4 minutes at 70 μl/min and then allowed to dissociate in buffer for 10 minutes. Regeneration was achieved by injecting 10 mM glycine pH 2.1 (GE Healthcare, Human Fab Capture kit 28958325) for 60 seconds at a rate of 30 μl/min. Data analysis was performed as described in Example 9.1.

cCD137-mFc-Avi [5] = target: T4, cCD137-mFc-Avi (cynomolgus; mouse); assay: as above
T4 construct: also called cynomolgus CD137-mFc-Avi; Cyno CD137-mFc-Avi; not shown: mouse IgG2a Fc domain (mIgG2a Fc)
T4 chain: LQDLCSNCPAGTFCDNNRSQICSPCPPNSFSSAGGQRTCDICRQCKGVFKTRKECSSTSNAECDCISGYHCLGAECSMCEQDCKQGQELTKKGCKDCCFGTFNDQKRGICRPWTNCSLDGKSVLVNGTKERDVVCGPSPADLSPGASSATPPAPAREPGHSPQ
Procedure: as §2, §3

[6] = target: T5, human CD137, cell-surface (human, UniProt Q07011 24-255); assay: cell-based or functional assay
[7] = target: T6, cynomolgus CD137, cell-surface (cynomolgus, UniProt Q07011 24-255 (human entry)); assay: cell-based or functional assay
T6 chain: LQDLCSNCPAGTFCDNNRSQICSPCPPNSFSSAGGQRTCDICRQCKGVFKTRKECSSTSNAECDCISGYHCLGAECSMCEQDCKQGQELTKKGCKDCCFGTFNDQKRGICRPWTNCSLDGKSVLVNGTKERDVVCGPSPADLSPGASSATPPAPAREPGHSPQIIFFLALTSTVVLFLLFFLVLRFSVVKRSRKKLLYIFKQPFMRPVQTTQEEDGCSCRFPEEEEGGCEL

hCD137-mFc-Avi [8] = target: T3, hCD137-mFc-Avi; assay: SPR, mAb^2 captured by anti-human Fab, antigen in flow, 1:1 Langmuir fit
Procedure: (§4) An anti-human Fab capture antibody was immobilised on all four flow cells of a CM5 series S chip (GE Healthcare #BR-1005-30) to an average surface density of 6000 RU following the manufacturer's recommendations (GE Healthcare, human Fab capture Kit, #28958325). […] Each mAb² was captured to approximately 150 RU by injecting a 3 μg/ml solution of mAb² diluted in HBS-EP+ buffer (GE Healthcare #BR1006-69) for 60 seconds at 30 μl/min. Then different concentrations of human, cyno or mouse CD137 antigen (unbiotinylated human, cyno or mouse CD137-mFc-Avi or human CD137-Avi-His) in HBS-EP+ buffer were flowed over the chip for 3 min at 60 μl/min and then allowed to dissociate for 10 minutes. After each antigen concentration the chip was regenerated by infecting 10 mM glycine pH 2.1 at a flow rate of 30 μl/min for 30 seconds. Buffer HBS-EP+ was injected before the highest concentration of antigen and after the lowest concentration of antigen for reference subtraction, and one of the concentrations at random was repeated twice. The binding kinetics were fit with a 1:1 Langmuir model to generate equilibrium binding constants (KD) for each sample. Data analysis was performed with BiaEvaluation software version 3.2.

cCD137-mFc-Avi [9] = target: T4, cCD137-mFc-Avi; assay: as above
Procedure: as §4

[10] = target: T5, human CD137, cell-surface; assay: cell-based or functional assay; remark: listed apart in the source

Chain of human PD-L1, cell-surface (Q9NZQ7 19-290): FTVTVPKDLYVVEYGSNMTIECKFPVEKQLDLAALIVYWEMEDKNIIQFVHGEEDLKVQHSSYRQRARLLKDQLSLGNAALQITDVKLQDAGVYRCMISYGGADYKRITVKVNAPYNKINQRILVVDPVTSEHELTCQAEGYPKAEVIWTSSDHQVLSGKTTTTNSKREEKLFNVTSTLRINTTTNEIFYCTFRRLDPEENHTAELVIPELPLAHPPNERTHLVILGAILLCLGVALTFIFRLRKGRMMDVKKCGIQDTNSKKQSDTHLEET

EC50 (nM), IFN-γ release, human MLR [1]: 0.02 nM
Emax (pg/ml), IFN-γ release, human MLR [1]: 2800 pg/mL
Kd [2]: 0.58 nM
Kd [3]: 0.47 nM
Kd (hCD137-mFc-Avi [4]): 2.8 nM
Kd (cCD137-mFc-Avi [5]): 1.1 nM
EC50 (nM), hIL-2 release, CD8+ T cells, donor 171115A, HEK.hPD-L1 XL [6]: 0.16 nM
EC50 (nM), hIL-2 release, CD8+ T cells, donor 171115A, MDA-MB-231 XL [6]: 0.01 nM
EC50 (nM), hIL-2 release, CD8+ T cells, donor 171115B, HEK.hPD-L1 XL [6]: 0.11 nM
EC50 (nM), hIL-2 release, CD8+ T cells, donor 171115B, MDA-MB-231 XL [6]: 0.02 nM
EC50 (nM) (crosslinked), mIL-2 release, DO11.10.cCD137 with HEK.cyPD-L1 [7]: 0.06 nM
Emax (pg/ml) (crosslinked), mIL-2 release, DO11.10.cCD137 with HEK.cyPD-L1 [7]: 8060 pg/mL
B1: FS22-053-008-AA/E05v2 (bispecific antibody, human IgG1, kappa, L234A L235A)
heavy: EVQLVQSGAEVKRPGASVKVSCKASGYTFTSYGISWVRQAPGQGLEWMGWISAYSGGTNYAQKLQGRVTMTTDTSTSTAYMELRSLRSDDTAVYYCARDLFPTIFGVSYYYYWGQGTLVTVSSASTKGPSVFPLAPSSKSTSGGTAALGCLVKDYFPEPVTVSWNSGALTSGVHTFPAVLQSSGLYSLSSVVTVPSSSLGTQTYICNVNHKPSNTKVDKKVEPKSCDKTHTCPPCPAPEAAGGPSVFLFPPKPKDTLMISRTPEVTCVVVDVSHEDPEVKFNWYVDGVEVHNAKTKPREEQYNSTYRVVSVLTVLHQDWLNGKEYKCKVSNKALPAPIEKTISKAKGQPREPQVYTLPPSRDELNPPYLFSNQVSLTCLVKGFYPSDIAVEWESNGQPENNYKTTPPVLDSDGSFFLYSKLTVDYWRWLEGNVFSCSVMHEALHNHYTQKSLSLSPG
light: DIQMTQSPSTLSASVGDRVTITCRASQSISGRLAWYQQKPGKAPNLLIYEASNLESGVPSRFSGSGSGTEFTLTISSLQPEDFATYYCQQSYSTPRVTFGQGTKVEIKRTVAAPSVFIFPPSDEQLKSGTASVVCLLNNFYPREAKVQWKVDNALQSGNSQESVTEQDSKDSTYSLSSTLTLSKADYEKHKVYACEVTHQGLSSPVTKSFNRGEC

Kd (hCD137-mFc-Avi [8]): 38 nM
Kd (cCD137-mFc-Avi [9]): 34 nM
luciferase signal, NF-κB reporter assay (HEK.FRT.luc.hCD137), fold increase on Protein L crosslinking [10]: ≥ 10 fold
B2: FS22-053 in HeID1.3 mock mAb^2 format (bispecific antibody, human IgG1, kappa)
heavy: QVQLQESGPGLVRPSQTLSLTCTVSGSTFSGYGVNWVRQPPGRGLEWIGMIWGDGNTDYNSALKSRVTMLVDTSKNQFSLRLSSVTAADTAVYYCARERDYRLDYWGQGSLVTVSSASTKGPSVFPLAPSSKSTSGGTAALGCLVKDYFPEPVTVSWNSGALTSGVHTFPAVLQSSGLYSLSSVVTVPSSSLGTQTYICNVNHKPSNTKVDKKVEPKSCDKTHTCPPCPAPELLGGPSVFLFPPKPKDTLMISRTPEVTCVVVDVSHEDPEVKFNWYVDGVEVHNAKTKPREEQYNSTYRVVSVLTVLHQDWLNGKEYKCKVSNKALPAPIEKTISKAKGQPREPQVYTLPPSRDELNPPYLFSNQVSLTCLVKGFYPSDIAVEWESNGQPENNYKTTPPVLDSDGSFFLYSKLTVYYNRWQDGNVFSCSVMHEALHNHYTQKSLSLSPG
light: DIQMTQSPASLSASVGETVTITCRASGNIHNYLAWYQQKQGKSPQLLVYNAKTLADGVPSRFSGSGSGTQYSLKINSLQPEDFGSYYCQHFWSTPRTFGGGTKLEIKRTVAAPSVFIFPPSDEQLKSGTASVVCLLNNFYPREAKVQWKVDNALQSGNSQESVTEQDSKDSTYSLSSTLTLSKADYEKHKVYACEVTHQGLSSPVTKSFNRGEC
notes: mock mAb^2: CD137 site in the CH3, Fab against hen egg lysozyme

Kd (hCD137-mFc-Avi [8]): 52 nM
Kd (cCD137-mFc-Avi [9]): 203 nM
luciferase signal, NF-κB reporter assay (HEK.FRT.luc.hCD137), fold increase on Protein L crosslinking [10]: ≥ 10 fold
B3: FS22-172 in HeID1.3 mock mAb^2 format (bispecific antibody, human IgG1, kappa)
heavy: QVQLQESGPGLVRPSQTLSLTCTVSGSTFSGYGVNWVRQPPGRGLEWIGMIWGDGNTDYNSALKSRVTMLVDTSKNQFSLRLSSVTAADTAVYYCARERDYRLDYWGQGSLVTVSSASTKGPSVFPLAPSSKSTSGGTAALGCLVKDYFPEPVTVSWNSGALTSGVHTFPAVLQSSGLYSLSSVVTVPSSSLGTQTYICNVNHKPSNTKVDKKVEPKSCDKTHTCPPCPAPELLGGPSVFLFPPKPKDTLMISRTPEVTCVVVDVSHEDPEVKFNWYVDGVEVHNAKTKPREEQYNSTYRVVSVLTVLHQDWLNGKEYKCKVSNKALPAPIEKTISKAKGQPREPQVYTLPPSRDELRKYYPPYNQVSLTCLVKGFYPSDIAVEWESNGQPENNYKTTPPVLDSDGSFFLYSKLTVGADRWLEGNVFSCSVMHEALHNHYTQKSLSLSPG
light: B2 light
notes: mock mAb^2
